# Patent US20250270287A1 (KEROS THERAPEUTICS, published 2025)
# Positions count from the first letter of the chain named.
# B1: ActRIIA-A1 (SEQ ID NO: 104) chimera-Fc protein (Fc fusion)
# chain: GRGEAETRECLFFNANWEKDRTNQTGVEPCYGDKDKRRHCFATWKNISGSIEIVKQGCWLDDINCYDRTDCVEKKDSPEVYFCCCEGNMCNEKFSYFPEMEVTQPTS
# notes: Tested as chimera-Fc protein; not shown: linker (if any) and Fc domain
# B2: ActRIIA-A3 (SEQ ID NO: 106) chimera-Fc protein (Fc fusion)
# chain: GAILGRSETQECLFFNANWEKDRTNQTGVEPCEGEQDKRRHCFATWKNISGSIEIVKQGCWLDDINCYDRTDCVEKKDSPEVYFCCCEGNMCNEKFSYFPEMEVTQPTS
# notes: as for B1
# B3: ActRIIA-B1B4 (SEQ ID NO: 102) chimera-Fc protein (Fc fusion)
# chain: B2 chain with L13I, F14Y, F15Y, E33Y, E35D, Q36K, S52T, I55L, Q58K
# notes: Tested as chimera-Fc protein; also called ActRIIA-B1β4; not shown: linker (if any) and Fc domain
# B4: ActRIIA-A5 (SEQ ID NO: 107) chimera-Fc protein (Fc fusion)
# chain: B2 chain with E33Y, E35D, Q36K, I65F, T71Q, D72E
# notes: as for B1
# B5: ActRIIA-A6 (SEQ ID NO: 108) chimera-Fc protein (Fc fusion)
# chain: B2 chain with E33Y, E35D, Q36K, K77E, D78E, S79N, E81Q
# notes: as for B1
# B6: ActRIIA-B1B7 (SEQ ID NO: 101) chimera-Fc protein (Fc fusion)
# chain: B2 chain with L13I, F14Y, F15Y, E33Y, E35D, Q36K, K95R, S97T, Y98H, F99L
# notes: Tested as chimera-Fc protein; also called ActRIIA-B1β7; not shown: linker (if any) and Fc domain
# B7: ActRIIB-B5 (SEQ ID NO: 114) chimera-Fc protein (Fc fusion)
# chain: GRGEAETRECIYYNANWELERTNQSGLERCEGEQDKRLHCYASWRNSSGTIELVKKGCWLDDFNCYDRQECVEKEENPQVYFCCCEGNFCNERFTHLPEAGGPEVTYEPPPTAPT
# notes: as for B1
# B8: ActRIIB-B7 (SEQ ID NO: 115) chimera-Fc protein (Fc fusion)
# chain: B7 chain with E73A, K74T, R93K, T95S, H96Y, L97F
# notes: as for B1
# B9: ActRIIB-B1B2B3B4 (SEQ ID NO: 119) chimera-Fc protein (Fc fusion)
# chain: GRGEAETRECLFFNANWELERTNQTGVEPCEGEQDKRRHCFATWKNISGSIEIVKQGCWLDDFNCYDRQECVATEENPQVYFCCCEGNFCNERFTHLPEAGGPEVTYEPPPTAPT
# notes: as for B1
# B10: ActRIIB-A8 (SEQ ID NO: 126) chimera-Fc protein (Fc fusion)
# chain: GRGEAETRECIYYNANWELERTNQSGLERCEGEQDKRLHCYASWRNSSGTIELVKKGCWLDDFNCYDRQECVATEENPQVYFCCCEGNFCNERFTHLPEMEVTQPTS
# notes: as for B1
# Biological target: T1, BMP-9 (UniProt Q9UK05 320-429)
# T1 sequence (looked up): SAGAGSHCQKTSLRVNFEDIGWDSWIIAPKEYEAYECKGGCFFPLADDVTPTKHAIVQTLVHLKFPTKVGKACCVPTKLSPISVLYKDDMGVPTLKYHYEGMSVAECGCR
# Assay: cell-based or functional assay
row,"IC50, BRE-luciferase reporter in C2C12 cells [µg/mL]",Binder
1,50,B1
2,12,B2
3,> 50,B3
4,4.2,B4
5,8.8,B5
6,> 50,B6

# Biological target: T2, Activin B (UniProt P09529 293-407)
# T2 sequence (looked up): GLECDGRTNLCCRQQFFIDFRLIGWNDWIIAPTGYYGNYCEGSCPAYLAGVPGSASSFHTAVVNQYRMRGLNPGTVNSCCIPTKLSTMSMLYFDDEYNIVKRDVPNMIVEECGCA
# Assay: cell-based or functional assay
row,"IC50, SBE-luciferase reporter in HEK293 cells [µg/mL]",Binder
1,0.21,B1
2,0.24,B2
3,0.13,B3
4,0.073,B4
5,0.1,B5
6,0.25,B6

# Biological target: T3, Activin A (UniProt P08476 311-426)
# T3 sequence (looked up): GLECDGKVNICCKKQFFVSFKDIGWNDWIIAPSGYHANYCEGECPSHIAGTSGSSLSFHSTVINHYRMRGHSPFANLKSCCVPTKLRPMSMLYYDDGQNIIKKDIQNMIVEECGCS
# Assay: cell-based or functional assay
row,"IC50, SBE-luciferase reporter in HEK293 cells [µg/mL]",Binder
1,0.64,B1
2,0.63,B2
3,0.75,B3
4,0.3,B4
5,0.33,B5
6,1.4,B6

# Biological target: T4, GDF-11 (UniProt O95390 299-407)
# T4 sequence (looked up): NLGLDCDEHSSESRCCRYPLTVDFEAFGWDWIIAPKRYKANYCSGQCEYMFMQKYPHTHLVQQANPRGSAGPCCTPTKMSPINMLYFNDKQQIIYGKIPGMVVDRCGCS
# Assay: cell-based or functional assay
row,"IC50, SBE-luciferase reporter in HEK293 cells [µg/mL]",Binder
1,0.24,B1
2,0.19,B2
3,0.26,B3
4,0.23,B4
5,0.077,B5
6,0.39,B6

# Biological target: T1, BMP-9
# Assay: cell-based or functional assay
# Remark: another data set of the same source
row,"IC50, BRE-luciferase reporter in C2C12 cells [µg/mL]",Binder
1,0.022,B7
2,0.032,B8
3,0.36,B9
4,3.6,B10

# Biological target: T2, Activin B
# Assay: cell-based or functional assay
# Remark: another data set of the same source
row,"IC50, SBE-luciferase reporter in HEK293 cells [µg/mL]",Binder
1,0.11,B7
2,0.12,B8
3,0.086,B9
4,0.052,B10

# Biological target: T3, Activin A
# Assay: cell-based or functional assay
# Remark: another data set of the same source
row,"IC50, SBE-luciferase reporter in HEK293 cells [µg/mL]",Binder
1,0.069,B7
2,0.067,B8
3,0.13,B9
4,0.23,B10

# Biological target: T4, GDF-11
# Assay: cell-based or functional assay
# Remark: another data set of the same source
row,"IC50, SBE-luciferase reporter in HEK293 cells [µg/mL]",Binder
1,0.096,B7
2,0.15,B8
3,0.14,B9
4,0.13,B10

# Biological target: T5, BMP-10 (UniProt O95393 317-424)
# T5 sequence (looked up): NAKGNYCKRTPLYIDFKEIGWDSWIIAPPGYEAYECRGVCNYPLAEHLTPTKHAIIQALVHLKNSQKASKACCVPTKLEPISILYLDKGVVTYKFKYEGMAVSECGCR
# Assay: SPR (Biacore 8K), Fc protein captured on anti-human IgG, ligand injected
# Procedure: (§1) The Cytiva Biacore 8k was used to measure the kinetics of the interactions between the ActRII- and chimera-Fc proteins and Activin A/Activin B/growth differentiation factor 8 (GDF-8)/GDF-11/BMP-9/BMP-10. Series S CM4 Sensor Chips were immobilized with anti-human capture antibody using the reagents and protocol in the Biacore Human Antibody Capture Kit (GE Life Sciences). Briefly, anti-human IgG was diluted to 25 μg/mL in immobilization buffer. The carboxylated surface of the sensor was activated by injecting a mixture of EDC and NHS. The anti-human IgG was injected into the activated sensor chip flow cells at 10 μL/min for a total of 7 minutes until the chip reached an immobilization level of 3000 resonance units (RU). Ethanolamine was injected to deactivate the sensor surfaces. The chip has 8 flow cells to be used for binding analysis, each with an in-line reference surface to subtract instrument noise and non-specific binding to the sensor chip. The ActRII- and chimera-Fc proteins were captured in their own flow cell to allow for a maximum analyte binding response of 20-30 RU. This was done by injecting 10-20 μL of the ActRII- and chimera-Fc proteins into the flow cells at a concentration of 2 μg/mL until 60-90 RU was captured. Ligand at a single concentration was injected at […] for 60 seconds and then allowed to dissociate under buffer flow for no less than 5 minutes. After the cycle completed, captured protein was stripped from the chip with an injection of 3 M magnesium chloride, the regeneration buffer provided with the Biacore Human Antibody Capture Kit. Each ligand was injected in a concentration series, including a buffer only 0 nM concentration to serve as a double reference for subtracting out instrument noise. The data were analyzed using the Biacore Insight Evaluation Software.
row,Kd [nM],Binder
1,0.0414,B7
2,< 0.001,B8
3,0.0663,B1
4,0.369,B9
5,0.0289,B2
6,0.227,B3
7,0.126,B4
8,0.347,B5
9,0.2,B6
10,0.0292,B10

# Biological target: T1, BMP-9
# Assay: as above
# Procedure: as §1
row,Kd [nM],Binder
1,0.0632,B7
2,0.0202,B8
3,62,B1
4,1.08,B9
5,18,B2
6,32.9,B3
7,2.55,B4
8,49.7,B5
9,77.2,B6
10,0.074,B10

# Biological target: T2, Activin B
# Assay: as above
# Procedure: as §1
row,Kd [nM],Binder
1,0.0158,B7
2,< 0.001,B8
3,0.0199,B1
4,0.0197,B9
5,0.0755,B2
6,0.00531,B3
7,0.0174,B4
8,0.0558,B5
9,0.0249,B6
10,< 0.001,B10

# Biological target: T3, Activin A
# Assay: as above
# Procedure: as §1
row,Kd [nM],Binder
1,0.00327,B7
2,< 0.001,B8
3,0.0703,B1
4,0.0066,B9
5,0.0357,B2
6,0.024,B3
7,0.048,B4
8,0.032,B5
9,0.0217,B6
10,0.0442,B10

# Biological target: T4, GDF-11
# Assay: as above
# Procedure: as §1
row,Kd [nM],Binder
1,< 0.001,B7
2,< 0.001,B8
3,< 0.001,B1
4,< 0.001,B9
5,< 0.001,B2
6,3.43,B3
7,0.00665,B4
8,< 0.001,B5
9,< 0.001,B6
10,< 0.001,B10

# Biological target: T6, growth differentiation factor 8 (GDF-8) (UniProt O14793 267-375)
# T6 construct: also called myostatin
# T6 sequence (looked up): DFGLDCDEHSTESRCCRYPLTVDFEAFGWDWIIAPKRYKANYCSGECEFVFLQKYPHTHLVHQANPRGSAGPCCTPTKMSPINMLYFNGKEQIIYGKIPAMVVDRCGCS
# Assay: as above
# Procedure: as §1
row,Kd [nM],Binder
1,0.0102,B7
2,0.00346,B8
3,0.203,B1
4,0.00354,B9
5,0.0977,B2
6,0.125,B3
7,0.122,B4
8,0.0682,B5
9,0.0898,B6
10,0.00423,B10
